According to patent US8187838B2, “β-Galactoside-α2, 6-sialyltransferase, a gene encoding thereof, and a method for producing thereof” (Japan Tobacco Inc., priority 2006, dated 2012):

Tests used:
Assay type in all cases: biochemical
[1] = Time-dependent induction of expression, sialyltransferase activity and productivity in E. coli homogenate; conditions: for Total enzyme activity (unit): 0.3 L culture; for Amount of transferred sialic acid / Radioactivity (CPM): 1 minute, 30° C.; for Radioactivity (CPM): crude enzyme diluted 200-fold
Procedure: A time-dependent induction experiment of protein expression was performed on the ISH224-N0C0 and ISH224-N1C0 clones obtained in Example 2. A single colony of E. coli TB1 having the expression vector pTrc99A carrying each clone was inoculated into LB medium (6 ml) containing an antibiotic, ampicillin (final concentration 100 μg/mL), and pre-cultured at 30° C. for about 8 hours. This pre-cultured solution was inoculated into LB medium (300 ml) containing and antibiotic, ampicillin (final concentration 100 μg/mL) and cultured with shaking at 30° C. When OD600 reached around 0.5, IPTG (isopropyl-β-D(−)-thiogalactopyranoside, Wako Pure Chemical Industries, Ltd., Japan) was added at a final concentration of 1 mM, followed by culturing with shaking at 30° C. At 4, 6, 22 and 28 hours after culturing, the cells in each culture solution were collected by centrifugation. These cells were suspended in 20 mM Bis-Tris buffer (pH 6.0) containing 0.336% […] Triton® X-100, and ultrasonically homogenized under ice cooling. The resulting homogenate was defined as a crude enzyme solution, diluted 200-fold with 20 mM cacodylate buffer (pH 5.0) containing 0.336% Triton X®-100, and then provided for activity measurement. The reaction was carried out in duplicate. The reaction conditions are as indicated in the footnote of Table 2.
(§1) Reaction Conditions Reaction composition:
Reaction time: 1 minute Reaction temperature: 30° C.

[2] = Sialyltransferase activity of samples after each purification step; conditions: for Specific activity (U/mg) / Total activity (U): Bis-Tris pH 6, 5 minutes, 25° C.
Procedure: Sialyltransferase activity was measured as described in J. Biochem., 120, 104-110 (1996) (which is hereby incorporated by reference in its entirety). More specifically, the enzymatic reaction was accomplished by using CMP-NeuAc (70 nmol, containing about 20,000 cpm CMP-NeuAc in which NeuAc was labeled with ^14C; NeuAc represents N-acetylneuraminic acid) as a glycosyl donor substrate, lactose (1.25 μmol) as a glycosyl acceptor substrate, NaCl added to give a concentration of 0.5 M, and the enzyme-containing reaction solution (30 μl) prepared as described above. The enzymatic reaction was carried out at 25° C. for about 10 to 180 minutes. After completion of the reaction, 1.97 ml of 5 mM phosphate buffer (pH 6.8) was added to the reaction solution, which was then applied to a Dowex 1×8 (PO4^3− form, 0.2×2 cm, BIO-RAD) column. The radioactivity was measured for the reaction product, i.e., sialyllactose contained in the eluate (0 to 2 ml) from this column to calculate the enzyme activity. One enzyme unit (1 U) is defined as the amount of enzyme required to transfer 1 micromole of sialic acid per minute.
(§2) The enzyme activity was measured by the method reported in J. Biochem. 120, 104-110 (1996), in the same manner as described in Example 1 under conditions as indicated in the footnote of Table 3-1. For protein quantification, a Coomassie Protein Assay Reagent (PIERCE) was used according to the instruction manual attached thereto. One enzyme unit (1U) was defined as the amount of enzyme required to transfer 1 micromole of sialic acid per minute.
Reaction time: 5 minutes Reaction temperature: 25° C.
as §2, with “3-2.” for “3-1.”
as §1
Reaction time: 5 minutes Reaction temperature: 30° C.

[3] = test system: asialofetuin; assay: Sialic acid transfer to glycoprotein acceptor; conditions: 25° C., 2 hours
Procedure: As a glycosyl acceptor substrate, asialofetuin was used. Asialofetuin (2 mg) was dissolved in 1 ml of 20 mM Bis-Tris buffer (pH 6.0) and used as a glycosyl acceptor substrate solution. As a glycosyl donor substrate, CMP-NeuAc was used. The glycosyl acceptor substrate solution (40 μl), the glycosyl donor substrate (5 μl) and either of the enzyme solutions (5 μl, 10 mU each) were mixed and incubated at 25° C. for 2 hours to cause sialic acid transfer reaction. After completion of the reaction, the reaction solution was gel-filtered by being applied to a SEPHADEX® G-50 Superfine (0.8×18.0 cm) equilibrated with 0.1 M sodium chloride. A glycoprotein-containing eluate fraction (2-4 ml fraction) from gel filtration was collected and measured for its radioactivity using a liquid scintillation counter to quantify sialic acid transferred to the glycosyl acceptor substrate.

[4] = after MONO Q (purified fraction)

B1: ISH224-N1C0 (protein, listed as Photobacterium sp.)
chain: MSEENTQSIIKNDINKTIIDEEYVNLEPINQSNISFTKHSWVQTCGTQQLLTEQNKESISLSVVAPRLDDDEKYCFDFNGVSNKGEKYITKVTLNVVAPSLEVYVDHASLPTLQQLMDIIKSEEENPTAQRYIAWGRIVPTDEQMKELNITSFALINNHTPADLVQEIVKQAQTKHRLNVKLSSNTAHSFDNLVPILKELNSFNNVTVTNIDLYDDGSAEYVNLYNWRDTLNKTDNLKIGKDYLEDVINGINEDTSNTGTSSVYNWQKLYPANYHFLRKDYLTLEPSLHELRDYIGDSLKQMQWDGFKKFNSKQQELFLSIVNFDKQKLQNEYNSSNLPNFVFTGTTVWAGNHEREYYAKQQINVINNAINESSPHYLGNSYDLFFKGHPGGGIINTLIMQNYPSMVDIPSKISFEVLMMTDMLPDAVAGIASSLYFTIPAEKIKFIVFTSTETITDRETALRSPLVQVMIKLGIVKEENVLFWADLPNCETGVCIAV
- fold higher productivity than Pasteurella multocida-derived α2,3-sialyltransferase (6,000 U/L) [1]: about 1.8 fold
- fold higher productivity than Photobacterium damselae-derived recombinant β-galactoside-α2,6-sialyltransferase (224.5 U/L) [1]: about 48 fold
- Enzyme concentration in crude enzyme solution (unit/ml) ([1]; 4 hours after IPTG addition): 6.8 unit/ml
- Productivity (U/L of medium) ([1]; 4 hours after IPTG addition): 589 U/L of medium
- Total enzyme activity (unit) ([1]; 4 hours after IPTG addition): 177 unit
- Amount of transferred sialic acid ([1]; 4 hours after IPTG addition): 0.17 nmol
- Radioactivity (CPM) ([1]; 4 hours after IPTG addition): 142.5 CPM
- Enzyme concentration in crude enzyme solution (unit/ml) ([1]; 6 hours after IPTG addition): 14.8 unit/ml
- Productivity (U/L of medium) ([1]; 6 hours after IPTG addition): 1285 U/L of medium
- Total enzyme activity (unit) ([1]; 6 hours after IPTG addition): 385 unit
- Amount of transferred sialic acid ([1]; 6 hours after IPTG addition): 0.37 nmol
- Radioactivity (CPM) ([1]; 6 hours after IPTG addition): 311.0 CPM
- Enzyme concentration in crude enzyme solution (unit/ml) ([1]; 22 hours after IPTG addition): 86.2 unit/ml
- Productivity (U/L of medium) ([1]; 22 hours after IPTG addition): 10776 U/L of medium
- Total enzyme activity (unit) ([1]; 22 hours after IPTG addition): 3233 unit
- Amount of transferred sialic acid ([1]; 22 hours after IPTG addition): 2.16 nmol
- Radioactivity (CPM) ([1]; 22 hours after IPTG addition): 1809.0 CPM
- Productivity (U/L of medium) ([1]; 22 hours after IPTG addition, listed as ISH224-N1C0 clone): 10,776 U/L of medium
- Enzyme concentration in crude enzyme solution (unit/ml) ([1]; 28 hours after IPTG addition): 69.5 unit/ml
- Productivity (U/L of medium) ([1]; 28 hours after IPTG addition): 8946 U/L of medium
- Total enzyme activity (unit) ([1]; 28 hours after IPTG addition): 2684 unit
- Amount of transferred sialic acid ([1]; 28 hours after IPTG addition): 1.74 nmol
- Radioactivity (CPM) ([1]; 28 hours after IPTG addition): 1459.0 CPM
- time of maximum β-galactoside-α2,6-sialyltransferase activity after IPTG addition ([1]; culture at 30° C., 1 mM IPTG): 22 h
- Specific activity (U/mg) ([2]; Crude enzyme solution): 12.0 U/mg
- Total activity (U) ([2]; Crude enzyme solution): 13167 U
- Specific activity (U/mg) ([2]; after Hydroxyapatite): 68.3 U/mg
- Total activity (U) ([2]; after Hydroxyapatite): 9448 U
- Specific activity (U/mg) [2, 4]: 113 U/mg
- Total activity (U) [2, 4]: 2720 U
- Specific activity (U/mg) ([2]; after Q SEPHAROSE): 31.8 U/mg
- Total activity (U) ([2]; after Q SEPHAROSE): 11794 U
- fold higher specific activity than Pasteurella multocida-derived β-galactoside-α2,3-sialyltransferase (60 U/mg) ([2]; purified fraction): about 1.9 fold
- fold higher specific activity than β-galactoside-α2,6-sialyltransferase derived from Photobacterium damselae strain JT0160 (5.5 U/mg) ([2]; purified fraction): about 21 fold
- Radioactivity (cpm) ([3]; 10 mU enzyme, glycoprotein fraction after gel filtration): 3051 cpm
- sialic acid transfer to asialofetuin (in words) [3]: higher efficiency of sialic acid transfer
